Reference: the DeepSol protein solubility set

assay: soluble on expression in E. coli; label from the status in PepcDB or PDB records

For “MAEHRSMQRAALLDAARSLLSDGGTEALTFPALAERTGLARSSVYEYFRSRAAVVEELCAVDFPVWAAEVEAAMERETAPDAKVEAYVRTQLDLVGDRRHRAVVAISASELDAGAREKIRAAHGGLIAMIVEALGEMGHGQPRLAAMLLQGVVDAAVRRIELGAAEEPGAITEAAVSMALRGVRG”, which “soluble on expression in E. coli” value is on record?
Its value is “not soluble”.

With “MISLIAALAVDRVIGMENAMPWNLPADLAWFKRNTLDKPVIMGRHTWESIGRPLPGRKNIILSSQPGTDDRVTWVKSVDEAIAACGDVPEIMVIGGGRVYEQFLPKAQKLYLTHIDAEVEGDTHFPDYEPDDWESVFSEFHDADAQNSHSYCFEILERR” as the sequence, how does the “soluble on expression in E. coli” value read?
The value was “soluble”.

Which “soluble on expression in E. coli” value does the source give for “MASEVRIKLLLECTECKRRNYATEKNKRNTPNKLELRKYCPWCRKHTVHREVKI” here?
The value was “soluble”.

With “STRDDDDDEDDEEEEDSGAWGRESYAFDGFHPTEEFGFSFSPRGGMRFHGNFGFDDLVRDFNSIFSEMGAWTLPSHSPELPGPESETPGVRLREGQTLRDSMLKYPDSHQPRIFEGVLESHAKPESSKPAPDWGSQGPFHRLDDTWPVSPHSRAREDKDLDSQVSQEGLGPLLQPQPKSYFKSISVTKITKPDGTVEEHRTVVDGEGRRETTVTHQEAHDSSRSDPDPPRSSALDDPFSILDLLLGRWFRSR” as the sequence, how does the “soluble on expression in E. coli” value read?
Its value is “soluble”.

For “MRPTITALVLTYNGERLLDRCLGSLAFCDRILVVDSFSTDATVAIAQAAGAEVLQRKWEGPGPQFAFALEKISDGWIVSLDQDEICSEELRDSILAATAADSGEAGYWIPRRSWYFDRFLKHSGWYPDHLLRLFRAGRMRVEVSGAHYSFHPDGETGTLTGDILHYPYESFRQHLDKVNDYAQKGADDLRAKGKRGGLCAGLCHGAGRFIRIYIIKRGFLDGRAGFINAIHGAFYAFLKHLRIEEGDWGRPFEHKLEHHHHHH”, which “soluble on expression in E. coli” value is on record?
The value was “soluble”.

Which “soluble on expression in E. coli” value does the source give for “MAHHHHHHMGIYIFCLFPKGGRESKWGKPTITTKKVQGMPFPHPSHHHHHYHQKQQKTHHCHPRCTLVFLRQARAHKAITPPDVQRRTQRLNAQGKTTKKKSYDDGPPFFLFEKKKKRKAERHKEKGEKEGKGNVNTYRIVKEKEKVNKYLIYFYNNNNNYYYTYVCVYIHTTT” here?
Its value is “not soluble”.

Which “soluble on expression in E. coli” value does the source give for “MSLTTAHNIDLPTVLAERLTTAHPDVLRELLATFIHTLMGAEADALCGAGYGERSTERTNSRNGYRHRQFDTRAGSLDLAIPKLRHGSYFPDWLLERRKRAERALTTVVATCYLLGVSTRRMDKLVETLGITSLSKSQVSVMAKELDAAVEAFRTRPLDAGPYTFVAADALVLKVREGGRVVNVHALIAVGVNAEGHREILGIDVSTAEDGAGWLTFWRSLTARGLSGVKLVTSDAHAGLVAAIGATLPGAAWQRCRTHYTTNLMAVTPKSSWPWVRTLLHSVFDQPDAESVAAQYDRIIEALADKLPKVADHLEEARADLLAFTAFPKQIWRQIWSNNPLSVNRPSGDTVQAAAEGHHHHHH” here?
Its value is “soluble”.

Which “soluble on expression in E. coli” value does the source give for “MAHHHHHHMKTLAKKTLQGGVSGKCGSQIIIAHGLLGNSTNWMSVGRRLAAHDGVRGRLEEIHMLDMRNHGESPHFNAHTNATMASDIEHFVLQQQRQWQSRAGAEGDGGIVLIGHSMGGFAVMGSMLRRANETSLLLQSGVEELEQRCKRGDYYGWCDEQGNAAEMRAVNRAMGLPETQPLYDILYDCKGDNVARPPRVKAVVIVDITPSTALGTHRQHGQNSSETLDAMVAADLSRVHSFGDGNAELERVGVSNKAMRDFLLTNLRLDPRTKEATWRCNLPVLRADYNSIALGVSGWFLSASEKVSRDRGGELVAPLRCSLPTLFVFGQNSPYNTPEDRRLIPRFFSNAIEVEVEGAGHFVHYEKMQEFVNVVVPFLTEYL” here?
The value was “not soluble”.

With “KTNRRSETNIIRFNNSIFSAAVDYLNEMYNKQLGSICEPLINAYADVEQESPRNKQQGYVKVEFLEPDEEHDYTEQTLISLGMEVEHLLQSGVKLNDIAILVRKNKSIPRIADYFDKQLNYKIVSDEAFRLDASLAICMMLDALRYLSDPENRIVKAQLATNYQLQILHSEYDLNSLLLHKAEELFPPAFLERMAELRLMPLYELLEELFSLFELHRIEQQDAYLFAFFDAVTDYLQSHSSDPDSFIRYWNETLSGKTIPSGEVEGIRIFSIHKSKGLEFHTVLLPFCDWKLENETNNQLVWCVPQEAPFNELDIVPVNYSSAMAESVYRTDYLHERLQLWVDNLNLLYVAFTRAGKNLIIWSRKGQRNTMA” as the sequence, how does the “soluble on expression in E. coli” value read?
The value was “not soluble”.

Which “soluble on expression in E. coli” value does the source give for “MEQKQRRFTKNIFVLDVTAKTLCGAIAKLSSQPYCQIKIGRVVAFKPVKNPEPKGYVLNVPGPGAYRIQDGQDIISLMLTPHGVEATTERWEEWKFEGVSVTPMATRVQYNGVMVDAEIKYCKGMGIVQPYMRNDFDRNEMPDLPGVMRSNYDIRELRQKIKNERESAPRLQVHSVARPGSENLYPQ” here?
The value was “soluble”.

For “MTFLFDCLILLNILIATCQAIGRTQSTAIEGVLLCEDGPAKGVLIKLYDHDTVSPDELMDSAKTDADGHFRLSGTADEISGIEPKINIYHDCDDGILPCQRRITIFVPSKYVSNTKQPSETFNLGRLQLAGKYAGESRDCLH”, which “soluble on expression in E. coli” value is on record?
Its value is “soluble”.

For “MSLWRSTVARAPLDARERKNLVAHVQSAQAHESAQHAELAKLRASVNVMKAAEATPRNDEAGQDSAMIPMAGPGVRIILDDANAAPADELGDKDMRKLVNAVWQSGAEAVAINGHRIGPRTAIRSAGSAITVDYVSLSRPYVVEAIGSPQKLPAELADTPGGRWMTYLRDNSSITYQVTTKDRVSVPGSKASVSHARPHREGHHHHHH”, which “soluble on expression in E. coli” value is on record?
Its value is “soluble”.

For “MGSDKIHHHHHHMTVLYKGSLKQNNDPFHVTLLSKEHIEQILFLQNVVVEGLEDKSRLQPLSQEEFQYILEGNGMMIGAFIKNELIAFRALLVPPIDDEHLGLDIGLPESELHRVIYQEISNVHPNCRGNGMQKILATVIMDELQKENGKYDYVCCTVAPFNIPSLKDKFSQGMEIAALKEKYGGSMRYVFVKELREDKEKDWTEIKSVPMNNAGGQQALLSEGYRGYEMEKVDEDFVVKFGR”, which “soluble on expression in E. coli” value is on record?
Its value is “not soluble”.

Which “soluble on expression in E. coli” value does the source give for “SREEFEQILQERNELKAKVFLLKEELAYFQRELLTDHRVPSLLLEAMKVAVRKQRKKIKAKMLGT” here?
Its value is “soluble”.

For “SALSSAASLLGSPLTNDFAVISMSDLLTPLDTIMKRVEAFAKADIVTVIYNPRGSRFPDNIRKAVDIFLRYRNPETAVGIVRNAYRERQSVTITTLSNLNIEDIDMLTTVIIGNSETF”, which “soluble on expression in E. coli” value is on record?
Its value is “not soluble”.

With “SLRSIMTPRGEISWVDAEQSEDEIRRQLLSSPHSLFPVCRGELDEIIGIVRAKEMLVALESGENVAALASASPAIVVPETLDPINLLGVLRRARGSFVIVTNEFGVVQGLVTPLDVLEAIAGEFPDADETPEIVIDGDGWLIKGSTDLHALQQALGLDPLINDDEDIATVAGLVISANGHIPRIGDVVSLPPLHFTVVEANDYRVDLVRAVVTRPPSDEEE” as the sequence, how does the “soluble on expression in E. coli” value read?
The value was “not soluble”.

With “MSLEVISLSEKKGFNFNIIKNDPLDGHKGTNIGSISLDNIAPVFIDVANKEAFIDIGGMHARAKVEKGVKWITDKAAVEGDEAKEYWLCWVTTERNEQGPYYAGLTACYLLVNKAIRRGYKSMPEHVNMMDKSMKHHIIIDQIGDENKAILKDFLMNHDEGMWKHSSDALHQAFNEGHHHHHH” as the sequence, how does the “soluble on expression in E. coli” value read?
The value was “soluble”.

For “MYFPIVALIGRYQDTGLDAPLTALAQMLTQAGRRVLVEAETARNAGVSGYPVADWDEIGRTATLAVVMGGDGTVLGAARHLAPYGVPLIGINHGRLGFITDIPLQDAHDALGRVLEGNYQAEDRMLLQGGVWRGEQQMYSASAVNDVVLNRAGRGGMIEVRVELDGAFMYTQRADGLIIATPTGSTAYSLSANGPILHPGMNAMVLVPVAPQTLSNRPIVIPDSGVLNMTLTAMGRVEIGASVHFDMQTWSDLQPGDRITVQRAPHTIRFVHPEGYSFFSTLRRKLHWNLMPQATDNLELEHHHHHH”, which “soluble on expression in E. coli” value is on record?
The value was “soluble”.

For “GPGSMLRAFASPILAKVPYATLFEYNHVLQKVFEAQPSKVALRCELPGMPEVQFTYGQLQRDVVALADAVVRRKEAVAQARGETSLGWLQPSKPAHVRSVFAQGERTPSCDYMKDTGFYTTSLLCGPGYTYAVSLLASWSLNQLVTPMPISQRYKDELMYVLEHSGSRSIVGNTKLLKEKLPAEYEELYVRAEADVDKIPRSASREPKQRNDSDVTSNTFFVDTVYDATLLVRDITAARDIQGTATLETEWLPPAESVCAPMRSAEDLVKRLDEEKATAKARELDRQAEILQQEHVRRNRAPMQATGGADPAGSDADGESLFCFDSAHLDELNRVYQRWYTMPSARPTKYDDCLMLYTSGTTAKPKGVVHTHASVANMVKVLQNAWQWRDTDSILHVLPWHHVHGLVNILLCAIASNARCVVTTFDDAARVAHRLEQGDITLFMAVPTVYVKLSDAVQRKFSPIEKTGFRRACMESVRLMVCGSAPLPVPTLNQFCELSGHTLLERYGMTEIGMALSQPLHPISDRHPGTVGSPLQTVKTYVHQPETAEAMEQASAKEAEYDEVGGLGIASESLFDRYWNNATATKKEVRTNAAGMRFFDTGDTVGVRLPAGKPAVYTILGRSSVDIIKSRGYKLSALEIEATLLARNDLFYEIAVVGAADAVQGESVVAIVAMQPEAARARGIAFGEGFAWHESAAVTEELKKAALQLLAPYKCPSRYIVVPEIPRNPTGKVNKKDLKKVLGLA”, which “soluble on expression in E. coli” value is on record?
The value was “not soluble”.

For “NLDALREVLECPICMESFTEEQLRPKLLHCGHTICRQCLEKLLASSINGVRCPFCSKITRITSLTQLTDNLTVLK”, which “soluble on expression in E. coli” value is on record?
Its value is “soluble”.

With “MGSDKIHHHHHHMKVVKFGGSSLASGAQLDKVFHIVTSDPARKAVVVSAPGKHYAEDTKVTDLLIACAEQYLATGSAPELAEAVVERYALIANELQLGQSIIEKIRDDLFTLLEGDKSNPEQYLDAVKASGEDNNAKLIAAYFRYKGVKAEYVNPKDAGLFVTNEPGNAQVLPESYQNLYRLRERDGLIIFPGFFGFSKDGDVITFSRSGSDITGSILANGLQADLYENFTDVDAVYSVNPSFVENPKEISELTYREMRELSYAGFSVFHDEALIPAFRAGIPVQIKNTNNPSAEGTRVVSKRDNTNGPVVGIASDTGFCSIYISKYLMNREIGFGRRALQILEEHGLTYEHVPSGIDDMTIILRQGQMDAATERSVIKRIEEDLHADEVIVEHHLALIMVVGEAMRHNVGTTARAAKALSEAQVNIEMINQGSSEVSMMFGVKEAEERKAVQALYQEFFAGVLIS” as the sequence, how does the “soluble on expression in E. coli” value read?
The value was “not soluble”.

With “MVTLSLPNMEGRREQLIAQVESILASAADGRVQKTKETQSVDFKEEAGRRNGPQIEPGKPENPEAADKLADEVACMANTPGGGALIVGIEDKTGRIIGTELDIDWLRQGIFTRIDVAPDVVAKRVLGQRVLAIYVAAAAEPIEDTSDRLRWRVGDSCRPVDRAEWWEYQRAQSGFDPMAQVTTATLGDARPAALALARKWDPAFAELTDEELLRGIGALDAEGFLSQAGKLLFTSLDRTAIELSIFDVHGGQVLNRVVPEPEKSCLEQLDYLEQALNVVNKNNTVVEGFVHKPVPEIPRLAVREAMLNAMIHRDWNRSEPIDVRWIELDSTLIVRSPGGFPAAITSENVLSNRAARYPALADLYRALGLVDKQGVGVDRMYQAMIALGHRPPTIEEIAGPFVETTLVGGRPVLPVLELVSSIVPEARQDDYRIAIVLYLLFQRPFITIDVVARGLQSGKEAARNALEAARQTTVAGAPLIIAHDGVWLLGNACREILRKVEPSPFSPVRYLSTDQAELTNAAMLWLSEVGDLATSDLMAMCGVSRGTAKACVDGLVDEERVVAVGGGRSRRYRLVELEHHHHHH” as the sequence, how does the “soluble on expression in E. coli” value read?
Its value is “soluble”.

Which “soluble on expression in E. coli” value does the source give for “MGHHHHHHSHMFLVLKKKHICHRNLVNILQLNMYVCCLDKCNHCKHLYDLGFCFYFEMGAFLFTSSLKTKNCFCKEMRFFLNNKKCLADSLLNKNLPNFLIDYFKPFVTWYSFASQFRFRVITFPLFLRKMKKVILLSEGERHSFIFFFFFFFFL” here?
Its value is “not soluble”.
